US20160082114A1 (published 2016)
Where two headings read alike, the source gives them in different places.

Tests used:
[1] = target: T1, folate receptor 1 (FOLR1) (human, UniProt P15328 25-234); experiment: flow cytometry, T47D cells
[2] = target: T1, folate receptor 1 (FOLR1); experiment: flow cytometry, T47D cells; remark: listed apart in the source

T1 sequence (P15328 25-234): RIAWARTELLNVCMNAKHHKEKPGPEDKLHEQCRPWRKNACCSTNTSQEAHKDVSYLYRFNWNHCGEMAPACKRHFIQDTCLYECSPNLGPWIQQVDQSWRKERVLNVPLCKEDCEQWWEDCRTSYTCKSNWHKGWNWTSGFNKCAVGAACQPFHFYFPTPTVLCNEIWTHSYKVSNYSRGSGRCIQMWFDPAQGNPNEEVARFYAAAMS

B1: huMOV19-14 conjugate (antibody, V domains shown)
VH: QVQLVQSGAEVVKPGASVKISCKASGYTFTGYFMNWVKQSPGQSLEWIGRIHPYDGDTFYNQKFQGKATLTVDKSSNTAHMELLSLTSEDFAVYYCTRYDGSRAMDYWGQGTTVTVSS
VL: DIVLTQSPLSLAVSLGQPAIISCKASQSVSFAGTSLMHWYHQKPGQQPRLLIYRASNLEAGVPDRFSGSGSKTDFTLTISPVEAEDAATYYCQQSREYPYTFGGGTKLEIKR
EC50 [1]: 0.379 nM

B2: huMOV19-90 conjugate (antibody, V domains shown)
VH: B1 VH
VL: B1 VL
EC50 [2]: 0.371 nM
